This note sets out measurements from publication PMC3251565.

This assay concerns the target platelet integrin αIIbβ3 (human (endogenous in platelets)) (UniProt P08514).

Turning to “Rhodostomin (from UniProt P30403) (natural protein)”, the IC50 (KI in the text) of inhibition of ADP-induced platelet aggregation in human PRP stood at 83.2 nM.
